The record followed here is patent US20040214902A1.

No end group written: not given here. *: point of attachment. 6FAM = O=C1OC2(c3ccc(O)cc3Oc3cc(O)ccc32)c2cc(C(=O)*)ccc21

For this assay, the target named is 46-kDa soluble recombinant GST-fused Bcl-2 protein (Santa Cruz Biotechnology) (human) (UniProt P10415). Kind of assay: fluorescence polarization saturation binding. (In fluorescence polarisation assays a small probe gives low polarisation when free and higher when bound to something large.)

On to 6FAM-NLWAAQRYGRELRRMSDEFVDSFKK, for which the Kd came out at 6.9 nM.

What is called Kd is the equilibrium constant for the complex coming apart.
